Where a chain is given by its changes, count along the chain named.

In this assay the target is ADAM17 (UniProt P78536). Nature of the assay: BLI (Octet Red96, 25 C), antibody captured on anti-human Fab-CH1 (FAB2G) biosensor, antigen in solution. A general note: BLI is a label-free optical method that tracks binding on a fibre tip over time.

B1: D5.P2.B3 (Fab, V domains shown)
VH: QVQLQQSGAEVKKPGASVKVSCKASGYTFTGYYMHWVRQAPGQGLEWMGWINGNSGGTNYAQKFQGRVTMTRDTSISTAYMELSRLKSDNTAVYYCASSGSMDVWGQGTLVTVSS
VL: QSVVTQPPSVSGAPGQRVTISCSGSSSNVGRNLVYWYQQLPGAAPRLLIYRNNQRPSGVPDRFSGSKSGTSASLAISGLRSEDEADYYCAAWDDSLSGVVFGGGTKLTVLG
As for B1, the Kd was 4.9 nM, the koff came to 0.0012 s⁻¹ and the kon came out at 240000 M⁻¹ s⁻¹.

B2: D5.P1.A4 (Fab, V domains shown)
VH: B1 VH with N54K, N90D, S98R, S99L, G100D, S101R, M102R, V104Y
VL: B1 VL
B2 yielded a Kd of 5.3 nM, a koff of 0.0023 s⁻¹ and a kon of 430000 M⁻¹ s⁻¹.

For orientation: Kd means a measure of binding affinity in units of concentration. A lower Kd goes with higher affinity. By koff is commonly meant the first-order rate constant of dissociation. A word on the kon: it is the second-order rate constant of association. Low values mean slower complex formation, high ones faster complex formation.

The values are drawn from patent US20230159653A1.
